Experimental data from patent publication WO2012074097A1 (dated 2012).

Experiments:
[1] = target: T1, human CD33 on cells (human CD33-expressing CHO/DG44 cell line; CD33-positive cell lines THP-1, NB-4) (human, UniProt P20138 18-364); assay: FMAT on human CD33-expressing CHO/DG44 cells, hybridoma supernatant
T1 construct: The same entry is used here for the endogenous CD33 of THP-1, NB-4 and other leukemia lines; also called hCD33; CD33 transfectant

[2] = target: T2, Recombinant human Siglec-3 (CD33)/Fc Chimera (R&D Systems, catalog number 1137-SL) (human, UniProt P20138 18-259); assay: SPR (Biacore T-100), antibody captured on anti-mouse IgG, CD33-Fc as analyte
T2 construct: Bought product; also called recombinant human CD33-Fc; not shown: Fc part of the bought fusion protein; not described

[3] = target: T3, histidine-tagged soluble human CD33 (hCD33-His) (human, UniProt P20138 18-259); assay: SPR (Biacore T-100), antibody captured on anti-human IgG, hCD33-His as analyte
T3 construct: Human CD33 extracellular region with six histidines at the C-terminus, made in CHO/DG44 cells

[4] = target: T1, human CD33 on cells (human …); assay: flow cytometry on THP-1 cells
[5] = target: T2, Recombinant human Siglec-3 (CD33)/Fc …; assay: binding ELISA, CD33-Fc on the plate

T1 sequence (P20138 other isoform, or with tags, fused parts or gaps limits assumed): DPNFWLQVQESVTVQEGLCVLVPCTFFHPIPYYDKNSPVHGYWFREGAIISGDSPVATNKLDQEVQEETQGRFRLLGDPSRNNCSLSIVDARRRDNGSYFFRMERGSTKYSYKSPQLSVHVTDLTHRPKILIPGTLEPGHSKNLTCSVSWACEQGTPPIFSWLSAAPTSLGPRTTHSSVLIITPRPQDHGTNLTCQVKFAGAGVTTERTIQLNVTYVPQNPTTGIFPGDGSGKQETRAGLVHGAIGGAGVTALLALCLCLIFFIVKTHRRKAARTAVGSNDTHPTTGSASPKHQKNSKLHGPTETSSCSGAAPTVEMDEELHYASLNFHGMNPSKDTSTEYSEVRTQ
T3 sequence (P20138 other isoform, or with tags, fused parts or gaps limits assumed): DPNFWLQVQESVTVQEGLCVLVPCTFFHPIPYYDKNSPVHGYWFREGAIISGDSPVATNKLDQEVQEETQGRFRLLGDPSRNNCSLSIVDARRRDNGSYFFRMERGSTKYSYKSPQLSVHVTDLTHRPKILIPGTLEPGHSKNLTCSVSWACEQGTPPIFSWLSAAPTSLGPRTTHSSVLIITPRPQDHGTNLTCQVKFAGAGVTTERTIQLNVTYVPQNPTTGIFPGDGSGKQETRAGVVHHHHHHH
T2 sequence (P20138 18-259 limits assumed, change not shown): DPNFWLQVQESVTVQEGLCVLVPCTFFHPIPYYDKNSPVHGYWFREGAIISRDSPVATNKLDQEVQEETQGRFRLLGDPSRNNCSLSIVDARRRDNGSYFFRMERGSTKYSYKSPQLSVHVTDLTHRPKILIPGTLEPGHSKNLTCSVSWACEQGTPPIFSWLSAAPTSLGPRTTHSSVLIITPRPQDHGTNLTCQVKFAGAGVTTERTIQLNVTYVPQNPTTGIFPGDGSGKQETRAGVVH

binding result [1]	binding result [2]	binding result [3]	Binder	also measured
binds	–	–	anti-CD33 monoclonal antibody KM4072 (antibody, V domains shown, Hybridoma antibody from rat or mouse) VH: QVQLQQSGAELVKPGASVKMSCKASGYTFTTYPIEWMKQNHGKSLEWIGNFHPYNDDTEYNEKFKGKATLTVEKSSSTVYLELSRLTSDDSAVYYCARGYYYAMDYWGQGTSVTVSS VL: DAVMTQTPLSLPVSLGDQASISCRSSQSLEDSNGNTYLNWYLQKPGQSPQLLIYRVSNRFSGVLDRFSGSGSGTDFTLKISRVEAEDLGVYFCLQLTHVPWTFGGGTKLEIK	–
–	binds	–	anti-CD33 monoclonal antibody KM4075 (antibody, V domains shown, Hybridoma antibody from rat or mouse) VH: QLQESGPGLVKPSQSLSLTCSVTGYTITSGSDWSWIRKFPGNKMEWMGYISYSGNTNYNPSLKSRISITRDTSKNQFFLHLNSVTTADTATYYCTGKGWGQGVMVTVSS VL: DVVLTQTPVSLSVTLGDQASISCRSSQSLEYSDGYTYLEWYLQKPGHSPQLLIYGVSNRFSGVPDRFIGSGSGTDFTLRISRVEPEDLGVYYCFQATHDPYTFGAGTKLEL	binding result [4]: binds
binds	binds	–	anti-CD33 monoclonal antibody KM4073 (antibody, V domains shown, Hybridoma antibody from rat or mouse) VH: QVKLLQSGAALVKPGASVKMSCKVSGYTFTDYWVNWVKQSHGKTLEWIGEIYPNSGATNFNEKFKDKATLTVDRSTSTAYLEFSRLTSEDSAIYYCSLGPYWGQGVMVTVSS VL: DVVLTQTPPTLSATIGQSVSISCRSSQSLLDSDGQTYLNWFLQRPGQSPQLLIYSVSNLESGVPNRFSGSGSETDFTLKISGVEAEDLGLYYCMQATHAPLTFGSGTNLEIK	–
binds	binds	–	anti-CD33 monoclonal antibody KM4071 (antibody, V domains shown, Hybridoma antibody from rat or mouse) VH: QIQLVQSGPELKKPEETVKISCKASDYTFTDYSIHWVKQAPGKGLKWMGWINTETGETTNADDLKGRFAFSVETSASTAYLQINNLKNEDTATYFCARYRYDASYGMDYWGQGTSVTVSS VL: STVLTQSPKSMSMSVGERVTLSCKASENVGTYVSWYQQKPEQSPELLIYGSSNRSTGVPDRFTGSGSATDFTLTISSVQAEDLADYHCGQSYSYPPTFGGGTRLEIK	–

The remaining lines, values behind:

Binder	binding result [1]	binding result [2]	binding result [3]	also measured
anti-CD33 monoclonal antibody KM4074 (antibody, V domains shown, Hybridoma antibody from rat or mouse) VH: QLQETGPGLVKPSQSLSLTCSVTGYTITSGYEWTWIRKFPGNRMEWMGYINSSGSTDYNPSLKSRVSITRDTSKNQFFLQLNSVTTEDTATYFCTRWDRWGPGVMVTVSS VL: DVVLTQTLVAQPVRLGDQASISCRSSQSLVHSDGHTYLEWYLQKPGQSPQLLIYEISNRFSGVPDRFSGSGSGSDFTLKISRVEPEDLGLYYCFQGTHDLPTFGGGTKLELK	binds	binds	–	–
anti-CD33 chimeric antibody KM4054 (antibody, V domains shown, Expressed in FUT8 knockout CHO cells, so no core fucose) VH: QLQETGPGLVKPSQSLSLTCSVTGYTITSGYEWTWIRKFPGNRMEWMGYINSSGSTDYNPSLKSRVSITRDTSKNQFFLQLNSVTTEDTATYFCTRWDRWGPGVMVTVSS VL: DVVLTQTLVAQPVRLGDQASISCRSSQSLVHSDGHTYLEWYLQKPGQSPQLLIYEISNRFSGVPDRFSGSGSGSDFTLKISRVEPEDLGLYYCFQGTHDLPTFGGGTKLELK	–	–	binds	binding result [4]: binds; binding result [5]: binds
modified CD33 chimeric antibody ver.2 (antibody, V domains shown) VH: QLQETGPGLVKPSQSLSLTCSVTGYTITSGYEWTWIRKFPGNRMEWMGYISSSGSTDYNPSLKSRVSITRDTSKNQFFLQLNSVTTEDTATYFCTRWDRWGPGVMVTVSS VL: DVVLTQTLVAQPVRLGDQASISCRSSQSLVHSDGHTYLEWYLQKPGQSPQLLIYEISNRFSGVPDRFSGSGSGSDFTLKISRVEPEDLGLYYCFQGTHDLPTFGGGTKLELK	–	–	binds	–
modified CD33 chimeric antibody ver.1 (antibody, V domains shown) VH: QLQETGPGLVKPSQSLSLTCSVTGYTITSGYEWTWIRKFPGNRMEWMGYIYSSGSTDYNPSLKSRVSITRDTSKNQFFLQLNSVTTEDTATYFCTRWDRWGPGVMVTVSS VL: DVVLTQTLVAQPVRLGDQASISCRSSQSLVHSDGHTYLEWYLQKPGQSPQLLIYEISNRFSGVPDRFSGSGSGSDFTLKISRVEPEDLGLYYCFQGTHDLPTFGGGTKLELK	–	–	binds	–
modified CD33 chimeric antibody ver.3 (antibody, V domains shown) VH: QLQETGPGLVKPSQSLSLTCSVTGYTITSGYEWTWIRKFPGNRMEWMGYIQSSGSTDYNPSLKSRVSITRDTSKNQFFLQLNSVTTEDTATYFCTRWDRWGPGVMVTVSS VL: DVVLTQTLVAQPVRLGDQASISCRSSQSLVHSDGHTYLEWYLQKPGQSPQLLIYEISNRFSGVPDRFSGSGSGSDFTLKISRVEPEDLGLYYCFQGTHDLPTFGGGTKLELK	–	–	binds	–
modified CD33 chimeric antibody ver.4 (KM4084) (antibody, V domains shown) VH: QLQETGPGLVKPSQSLSLTCSVTGYTITSGYEWTWIRKFPGNRMEWMGYINSAGSTDYNPSLKSRVSITRDTSKNQFFLQLNSVTTEDTATYFCTRWDRWGPGVMVTVSS VL: DVVLTQTLVAQPVRLGDQASISCRSSQSLVHSDGHTYLEWYLQKPGQSPQLLIYEISNRFSGVPDRFSGSGSGSDFTLKISRVEPEDLGLYYCFQGTHDLPTFGGGTKLELK	–	–	binds	–
modified CD33 chimeric antibody ver.5 (antibody, V domains shown) VH: QLQETGPGLVKPSQSLSLTCSVTGYTITSGYEWTWIRKFPGNRMEWMGYINSGGSTDYNPSLKSRVSITRDTSKNQFFLQLNSVTTEDTATYFCTRWDRWGPGVMVTVSS VL: DVVLTQTLVAQPVRLGDQASISCRSSQSLVHSDGHTYLEWYLQKPGQSPQLLIYEISNRFSGVPDRFSGSGSGSDFTLKISRVEPEDLGLYYCFQGTHDLPTFGGGTKLELK	–	–	binds	–
